# Results published in patent US7329737 (DYAX, dated 2008).
# Substitutions are numbered along the chain they refer to.
# B1: M0104-A12 (Fab, V domains shown)
# VH: EVQLLESGGGLVQPGGSLRLSCAASGFTFSHYNMGWVRQAPGKGLEWVSRIGSSGGKTAYADSVKGRFTISRDNSKNTLYLQMNSLRAEDTAVYYCAKTNYDFWSGYLPNPNPYPLDYWGQGTLVTVSS
# VL: DIQMTQSPSSLSASVGDRVTITCRASQSIGASLNWYQQKPQKAPKLLIYTASNLQSGVPSRFSGSGSGTDFTLTISSLLPEDFATYYCQQNYRGRTFGQGTKLEIKR
# B2: M0104-H12 (Fab, V domains shown)
# VH: EVQLLESGGGLVQPGGSLRLSCAASGFTFSYYQMSWVRQAPGKGLEWVSRIGPSGGLTSYADSVKGRFTISRDNSKNTLYLQMNSLRAEDTAVYYCARVGVWYGMDVWGQGTLVTVSS
# VL: AQSELTQPPSASGSPGQSVTISCTGTSSDVGAYNYVSWYQQHPGKAPKLIIYEVNKRPSGVPDRFSASKSGNTASLTVSGLQAEDEADYYCNSYAGSNSLIFGGGTKLTVLG
# B3: M0135-F03 (Fab, V domains shown)
# VH: B2 VH with Y31H, Q33V, S35I, R50W, G52Y, L57N, S59I, V93T, L113T
# VL: DIQMTQSPATLSLSPGERATLSCRASQSVSSYLAWYQQKPGQAPRLLIYDASNRATGIPARFSGSGSGTDFTLTISSLEPEDFAVYYCQQRSNWPSPIAFGQGTRLEIKR
# B4: M0139-F09 (Fab, V domains shown)
# VH: B2 VH with Y31H, Q33V, S35A, L57Y, S59M, L113T
# VL: DIQMTQSPGTLSLSPGERATLSCRASQSVSSSYLAWYQQKPGQAPRLLIYGASSRATGIPDRFSGSGSGTDFTLTISSLQLEDFGTYFCQQSYRSPYTFGQGTKVDIKR
# B5: M0135-B05 (Fab, V domains shown)
# VH: B2 VH with Y31H, Q33L, S35D, R50V, G52Y, L57H, S59N, L113T
# VL: DIQMTQSPSSLSASVGDRVTITCRASQSISTYLNWYQQKPGKAPNLLIYAASSLQSGVPSRFSGSGSGTDFTLTVSSLQPEDFGTYYCQQYNSFPFSFGQGTRLEINR
# B6: M0111-C10 (Fab, V domains shown)
# VH: B2 VH with Y31R, Q33V, R50S, G52R, P53S, L57R, S59M, L113T
# VL: DIQMTQSPSSLSASVGDRVTITCRASQSISSYLNWYQQKPEKAPQLLIFAASSLQSGVPSRFSGSGSGTDFTLTISSLQPEDFATYYCQQSYNAPWTFGQGTKVEIRR
# B7: M0136-F08 (Fab, V domains shown)
# VH: EVQLLESGGGLVQPGGSLRLSCAASGFTFSHYKMGWVRQAPGKGLEWVSSIRPSGGATKYADSVKGRFTISRDNSKNTLYLQMNSLRAEDTAVYYCARVGIWDAFDIWGQGAMVTVSS
# VL: DIQMTQSPGTLSLSPGERATLSCRASQSVSSSYLAWYQQKPGQAPRLLIYDASNRATGIPARFSGSGSGTDFTLTISSLEPEDFAVYYCQQWDTFGQGTKLEIKR
# B8: M0115-G12 (Fab, V domains shown)
# VH: EVQLLESGGGLVQPGGSLRLSCAASGFTFSPYFMEWVRQAPGKGLEWVSGISSSGGNTLYADSVKGRFTISRDNSKNTLYLQMNSLRAEDTAVYYCARDRFGNYYGSGSKLQHDAFDIWGQGTMVTVSS
# VL: DIQMTQSPVTLSLSPGDRATLSCRASQSVSFNLAWYQHKPGQAPRLLMFDASNRATGIPDRFSGSGSGTDFTLTIKRLEPEDFAVYYCQQYGTSPFTFGPGTNVDVKR
# B9: M0138-B10 (Fab, V domains shown)
# VH: EVQLLESGGGLVQPGGSLRLSCAASGFTFSHYSMTWVRQAPGKGLEWVSRIYPSGGRTGYADSVKGRFTISRDNSKNTLYLQMNSLRAEDTAVYYCATDSGGYYYGMDVWGQGTTVTVSS
# VL: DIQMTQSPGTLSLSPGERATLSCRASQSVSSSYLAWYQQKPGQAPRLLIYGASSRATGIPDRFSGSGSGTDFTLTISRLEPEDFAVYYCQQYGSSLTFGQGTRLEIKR
# B10: M0132-D02 (Fab, V domains shown)
# VH: EVQLLESGGGLVQPGGSLRLSCAASGFTFSHYPMDWVRQAPGKGLEWVSYIGPSGGSTRYADSVKGRFTISRDNSKNTLYLQMNSLRAEDTAVYYCARHVPPGTWGQGTLVTVSS
# VL: AQSALTQPRSVSGSPGQSVTISCTGTSSDVNYVSWYQQHPGKAPKLMIYAVTKRPSGVPDRFSGSKSGNTASLTVSGLQAEDEADYYCSSYAGSNNLVFGGGTKLTVLG
# B11: M0094-E08 (Fab, V domains shown)
# VH: EVQLLESGGGLVQPGGSLRLSCAASGFTFSFYAMVWVRQAPGKGLEWVSYISPSGGATWYADSVKGRFTISRDNSKNTLYLQMNSLRAEDTAVYYCAKPSRPRYYYDSSGYYSSAFDIWGQGTMVTVSS
# VL: AQSVLTQPASVSGSPGQSITISCTGTSSDVGAYNYVSWYQQHPGKVPELMIYDVSNRPSGVSHRFSGSKSGNTASLTISGLQAEDDADYYCSSFTSRKTWVFGTGTKVTVLG
# B12: M0132-D08 (Fab, V domains shown)
# VH: EVQLLESGGGLVQPGGSLRLSCAASGFTFSHYLMYWVRQAPGKGLEWVSWIGPSGGHTMYADSVKGRFTISRDNSKNTLYLQMNSLRAEDTAVYYCARLQQGLDYWGQGTLVTVSS
# VL: DIQMTQSPSTLSASVGDRVTITCRASQSISNWLAWYQQKPGKAPKLLIYMASTLESGVPSRFSGSGSGTEFTLTISSLQPADFATYYCQQYNSYSVTFGGGTKVEIKR
# B13: M0126-F11 (Fab, V domains shown)
# VH: B12 VH with L33W, Y35M, P53S, H57F, M59W, L99G, Q100N, Q101G, L103F, Y105S
# VL: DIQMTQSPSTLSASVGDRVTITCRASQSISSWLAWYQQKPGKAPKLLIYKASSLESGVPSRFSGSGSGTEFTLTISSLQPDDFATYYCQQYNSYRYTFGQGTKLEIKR
# B14: M0128-E07 (Fab, V domains shown)
# VH: EVQLLESGGGLVQPGGSLRLSCAASGFTFSFYPMSWVRQAPGKGLEWVSYIWPSGGATRYADSVKGRFTISRDNSKNTLYLQMNSLRAEDTAVYYCARGNGGFDSWGQGTLVTVSS
# VL: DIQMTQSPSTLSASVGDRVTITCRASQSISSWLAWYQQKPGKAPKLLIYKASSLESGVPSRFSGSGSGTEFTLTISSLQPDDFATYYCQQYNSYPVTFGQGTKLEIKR
# B15: M0138-C04 (Fab, V domains shown)
# VH: EVQLLESGGGLVQPGGSLRLSCAASGFTFSHYHMQWVRQAPGKGLEWVSGIRSSGGVTGYSDSVKGRFTISRDNSKNTLYLQMNSLRAEDTAVYYCAREVTMVRGVYYYYYGMDVWGQGTTVTVSS
# VL: AQYELTQPASVSGSPGQSITISCTGTSSDVGAYNYVSWYQHHPGKAPKLLIYDVSNRPSGISSRFSGSKSGNTASLTISGLQAEDEADYYCSSYTSSYTWVFGGGTKLTVLS
# B16: M0132-H11 (Fab, V domains shown)
# VH: EVQLLESGGGLVQPGGSLRLSCAASGFTFSHYQMHWVRQAPGKGLEWVSRIRSSGGATSYADSVKGRFTISRDNSKNTLYLQMNSLRAEDTAVYYCARGGGYSYYFDYWGQGTLVTVSS
# VL: AQYELTQPPSASGTPGQRVTISCSGSSSNIGSNYVYWYQQLPGTAPKLLIYRNNQRPSGVPDRFSGSKSGTSASLAISGLRSEDEADYYCAAWDDSLSGHAVFGGGTQLTVLG
# B17: M0098-H04 (Fab, V domains shown)
# VH: B14 VH with F31H, P33V, Y50R, W52Y, A57Q, R59Y, N100A, G102W, S105P
# VL: AQSELTQPPSASGSPGQSLTISCTGGRRDIGNYNYVSWYQQHPGKAPRLIIYDVRKRPSGVPDRFSGSKSGNVAFLTVSGLQTDDEADYYCGSYTGTSNVFGSGTTVTVLG
# B18: M0131-G03 (Fab, V domains shown)
# VH: EVQLLESGGGLVQPGGSLRLSCAASGFTFSHYVMQWVRQAPGKGLEWVSSIYPSGGSTRYADSVKGRFTISRDNSKNTLYLQMNSLRAEDTAMYYCARFNVGFDLWGRGTLVTVSS
# VL: B17 VL
# B19: M0093-C02 (Fab, V domains shown)
# VH: EVQLLESGGGLVQPGGSLRLSCAASGFTFSWYAMHWVRQAPGKGLEWVSWISPSGGQTKYADSVKGRFTISRDNSKNTLYLQMNSLRAEDTAVYYCARAKVLRYFDWLLGGDAFDIWGQGTMVTVSS
# VL: DIQMTQSPGTLSLSPGDRATLSCRASQSVGSDYLAWYQQKPGQAPRLLIFAASTRATGIPDRFSGSGSATDFTLTISSLEPEDFAVYFCQQYASPPRTFGQGTKVEIKR
# B20: M0121-A07 (Fab, V domains shown)
# VH: EVQLLESGGGLVQPGGSLRLSCAASGFTFSHYLMYWVRQAPGKGLEWVSRIYPSGGATSYADSVKGRFTISRDNSKNTLYLQMNSLRAEDTAVYYCAKSGSWYSFDYWGQGTLVTVSS
# VL: B4 VL with S32N, I49M, S54Y, L81P, G85A, F88Y, R94S, S95T, Y97W, D106E
# B21: M0097-F04 (Fab, V domains shown)
# VH: EVQLLESGGGLVQPGGSLRLSCAASGFTFSPYQMWWVRQAPGKGLEWVSSISSSGGLTRYADSVKGRFTISRDNSKNTLYLQMNSLRAEDMAVYYCARVKLNYYGSGSYSLDAFDIWGQGTNGHRLKRLHQGPIGLPASTLLQEH
# VL: AQYELTQPPSASGTPGQRVTISCSGSSSNIGSNYVHWYQQLPGTAPKLLIYRNNRRPSGVPDRFSGSKSGTSASLAISGLRSEDEADYYCAAWDDSLSGLVVFGGGTKLTVLGQPKAAP
# B22: M0135-C12 (Fab, V domains shown)
# VH: EVQLLESGGGLVQPGGSLRLSCAASGFTFSRYHMSWVRQAPGKGLEWVSSIRPSGGSTIYADSVKGRFTISRDNSKNTLYLQMNSLRAEDTAVYYCAREPRRYYYDSSGSYDAFDIWGQGTMVTVSS
# VL: AQSELTQPPSMSGTPGQRVIISCSGSNSNIGNNFVYWYQQVAGSAPKLLIFRNNQRPSGVPDRFTVSKSGASASLAIGGLRSEDEADYYCAAWDDSLSGVLFGGGTKVTVLG
# Biological target: T1, hK1 (human tissue kallikrein 1), recombinant (human, UniProt P06870 25-262)
# T1 construct: Expressed in P. pastoris from KLK1 cDNA and purified; enzymatically active; also called KLK1; Recombinant (Pichia) Kallikrein
# Assay: SPR
Kd [nM],koff [s⁻¹],kon [M⁻¹ s⁻¹],Binder
3.66,0.00246,673000,B1
2.43,0.00138,567000,B2
2.66,0.000625,235000,B3
3.6,0.00108,301000,B4
5.9,0.000655,111000,B5
3.29,0.00341,1.04e+06,B6
5.97,0.00284,476000,B7
5.73,0.000865,151000,B8
3.36,0.00089,265000,B9
4.22,0.00303,717000,B10
3.34,0.00053,159000,B11
4.73,0.000923,195000,B12
5.05,0.00144,285000,B13
30.4,0.0147,483000,B14
4.26,0.000728,171000,B15
4.5,0.00198,440000,B16
5.53,0.00255,461000,B17
7.49,0.00256,341000,B18
5.72,0.00103,180000,B19
4.75,0.00438,922000,B20
3.26,0.000346,106000,B21
3.1,0.000376,121000,B22
